# Test results from PMC3762189.
# How the values were obtained:
# [1] = target: branch junction (bovine Arp2/3 complex with mother and daughter actin filaments) (bovine | rabbit) (UniProt P61157); assay: single-molecule TIRF microscopy; during active branching: 1 µM 33% Oregon-Green actin, 10 nM Arp2/3 complex, 350 nM VCA and 10 nM Alexa568-NtA(1-48)
# [2] = target: actin filaments (33% Oregon-Green actin), filament sides (rabbit) (UniProt P68135); assay: single-molecule TIRF microscopy; during active branching: 1 µM 33% Oregon-Green actin, 5 nM Arp2/3 complex, 50 nM VCA and 2 nM Alexa568-cortactin; average lifetimes for each binding class
# [3] = target: branch junction (bovine Arp2/3 complex with mother and daughter actin filaments) (bovine | rabbit) (UniProt P61157); assay: as above
# [4] = target: actin filaments (33% Oregon-Green actin), filament sides (rabbit) (UniProt P68135); assay: single-molecule TIRF microscopy; 2 nM Alexa568-cortactin (1–336) on polymerizing filaments of 1 µM 33% Oregon-Green actin, no Arp2/3 complex; filaments tethered by biotinylated myosin; lifetimes fit with a single exponential
# [5] = target: actin filaments (33% Oregon-Green actin), filament sides (rabbit) (UniProt P68135); assay: single-molecule TIRF microscopy; preformed branched networks (1 µM 33% Oregon-Green actin, 5 nM Arp2/3 complex, 30 nM VCA, ~6 min), then 1.5 nM Alexa568-cortactin and 0.1 µM actin monomers; koff from lifetimes, KD from the average fraction bound, kon calculated from KD and koff
# [6] = target: branch junction (bovine Arp2/3 complex with mother and daughter actin filaments) (bovine | rabbit) (UniProt P61157); assay: as above
# [7] = target: G-actin (rabbit muscle actin monomers) (rabbit) (UniProt P68135); assay: fluorescence polarisation; competition: anisotropy of 50 nM Rhodamine-VCA with 150 nM G-actin and increasing VCA or VCA mutants; 10 mM Hepes pH 7.0, 50 mM KCl, 1 mM MgCl2, 1 mM EGTA, 1 mM DTT, 0.2 mM ATP, 350 nM Latrunculin B; KD is the mean of at least three fits
# [8] = target: branch junction (bovine Arp2/3 complex with mother and daughter actin filaments) (bovine | rabbit) (UniProt P61157)
# Chain of cortactin NtA (residues 1–84) (Q60598 1-84): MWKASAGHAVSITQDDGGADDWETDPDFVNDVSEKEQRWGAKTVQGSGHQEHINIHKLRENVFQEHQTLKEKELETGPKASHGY
substance,measurement,setting,value
Alexa568-NtA(1-48) (from UniProt Q60598 1-48) (domain or fragment),time bound after daughter filament nucleation (one event shown),[1],4.5 s
Alexa568-cortactin (residues 1–336) (from UniProt Q60598 1-336) (domain or fragment),lifetime on filament sides during active branching,[2],8 s
same,average lifetime at the junction after nucleation,[3],62 s
same,average lifetime before nucleation (nascent branch junction),[3],6.5 s
same,average lifetime on existing branch junctions during active branching,[3],29.5 s
same,koff,[4],0.05 s⁻¹
same,Kd,[5],5.21 µM
same,koff,[5],0.063 s⁻¹
same,kon,[5],12100 M⁻¹ s⁻¹
same,Kd,[6],0.017 µM
same,average lifetime on branch junctions (preformed filament reactions),[6],29.1 s
same,koff,[6],0.034 s⁻¹
same,kon,[6],2e+06 M⁻¹ s⁻¹
N-WASP-VCA(E455R) (from UniProt Q95107 1-505) (domain or fragment),Kd,[7],0.63 µM
N-WASP-VCA(R442A) (from UniProt Q95107 1-505) (domain or fragment),Kd,[7],11.2 µM
cortactin NtA (residues 1–84) (from UniProt Q60598 1-84) (domain or fragment),"concentration of NtA (1–84) required for half-maximal synergy with GST-VCA (maximum rate of pyrene-actin polymerization; 2 µM 15% pyrene-actin, 20 nM Arp2/3 complex, 250 nM GST-VCA)",[8],11 µM
